Values of other authors, collected in PMC3623542.
Like-named read-outs stand apart in the source and are kept apart here.

Tests used:
[1] = biological target: DnaK (Escherichia coli) (UniProt P0A6Y8)
[2] = biological target: DnaK (Escherichia coli) (UniProt P0A6Y8); remark: listed apart in the source
[3] = biological target: DnaK (Escherichia coli) (UniProt P0A6Y8); test: SPR
[4] = biological target: DnaK (Escherichia coli) (UniProt P0A6Y8); test: SPR; remark: listed apart in the source
[5] = biological target: DnaK (Escherichia coli) (UniProt P0A6Y8); test: SPR; remark: listed apart in the source
[6] = biological target: DnaK (Escherichia coli) (UniProt P0A6Y8); test: NMR

DnaK (Escherichia coli), sequence (P0A6Y8 2-638): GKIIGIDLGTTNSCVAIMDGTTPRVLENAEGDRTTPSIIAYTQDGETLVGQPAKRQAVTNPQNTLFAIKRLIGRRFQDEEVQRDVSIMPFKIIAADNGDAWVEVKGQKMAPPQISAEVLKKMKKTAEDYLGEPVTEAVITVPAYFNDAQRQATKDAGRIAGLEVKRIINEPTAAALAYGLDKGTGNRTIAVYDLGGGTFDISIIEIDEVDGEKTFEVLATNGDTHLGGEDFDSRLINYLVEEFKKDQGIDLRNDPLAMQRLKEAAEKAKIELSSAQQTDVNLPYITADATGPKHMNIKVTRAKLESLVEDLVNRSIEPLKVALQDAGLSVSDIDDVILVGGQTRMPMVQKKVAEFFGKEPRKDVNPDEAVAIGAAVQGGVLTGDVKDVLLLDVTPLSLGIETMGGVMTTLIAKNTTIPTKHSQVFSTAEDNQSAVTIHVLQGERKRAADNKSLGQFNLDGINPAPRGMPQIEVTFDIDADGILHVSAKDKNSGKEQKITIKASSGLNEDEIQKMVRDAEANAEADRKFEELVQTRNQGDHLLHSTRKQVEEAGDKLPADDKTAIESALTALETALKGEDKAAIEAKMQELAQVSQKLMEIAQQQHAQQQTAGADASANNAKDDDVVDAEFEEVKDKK
DnaJ, sequence (P08622 2-376): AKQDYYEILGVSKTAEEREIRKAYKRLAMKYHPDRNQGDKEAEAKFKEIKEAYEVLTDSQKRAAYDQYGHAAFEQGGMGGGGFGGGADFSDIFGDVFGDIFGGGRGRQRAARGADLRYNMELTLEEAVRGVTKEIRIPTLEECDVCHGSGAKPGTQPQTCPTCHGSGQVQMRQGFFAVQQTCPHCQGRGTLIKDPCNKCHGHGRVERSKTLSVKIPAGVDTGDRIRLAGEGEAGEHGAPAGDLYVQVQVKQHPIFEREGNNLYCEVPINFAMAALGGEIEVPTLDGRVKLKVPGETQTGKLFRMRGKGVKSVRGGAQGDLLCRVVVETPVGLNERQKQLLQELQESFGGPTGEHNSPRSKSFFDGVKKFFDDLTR
DnaJ 1-75, sequence (P08622 1-75): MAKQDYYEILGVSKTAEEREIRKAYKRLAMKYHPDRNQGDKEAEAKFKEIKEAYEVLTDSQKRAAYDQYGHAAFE

Kd [1] [nM]	Kd [2] [nM]	Kd [3] [nM]	Kd [4] [nM]	Kd [5] [nM]	Kd [6] [nM]	Substance
140	> 2000	300	> 1000	70	–	DnaJ (from UniProt P08622)
–	–	–	–	–	10000	DnaJ 1-75 (from UniProt P08622)
